Source: patent US20250163149A1, “ANTI-RAGE ANTIBODY” (Swansea University, priority 2022, published 2025)

B1: murine ID9 anti-RAGE monoclonal antibody (antibody, part only; not given: Light chain variable region, V domains shown, part only)
VH: QVTLKESGPGILKPSQTLSLTCSFSGFSLSTSGMGVGWIRQPSGKGLEWLAHIWWDDDKYYKPSLKSQVTISKDTSRNQVFLKITSVDTADTATYYCARSRYYGSSGMDYWGQGTSVTVSS
B2: mHA9: murine version of anti-RAGE antibody clone HA9 (antibody, V domains shown)
VH: EVKLVETGGGLVQPGRPMKLSCVASGFTLSDHWMNWVRQSPEKGLEWVAQIRNRPYKFEKYYSDSVKGRFTISRDDSKNSVYLQMNNLRAEDMGIYYCSSYRYGLAYWGQGTLVTVST
VL: DNLLTQSPAILSVSPGERVSFSCRASQTIDTRIHWYQQRKNGSPRLLIRYISESLSGIPSRFSGSGSGTEFTLTINSVESEDIADYYCQQTESWPITFGSGTKLEIK
B3: HA9: anti-RAGE monoclonal antibody clone, VH SEQ ID NO: 7, VL SEQ ID NO: 8, raised against RAGE aa 39-65 (antibody, V domains shown)
Sequence of RAGE (Q15109 23-317 limits assumed): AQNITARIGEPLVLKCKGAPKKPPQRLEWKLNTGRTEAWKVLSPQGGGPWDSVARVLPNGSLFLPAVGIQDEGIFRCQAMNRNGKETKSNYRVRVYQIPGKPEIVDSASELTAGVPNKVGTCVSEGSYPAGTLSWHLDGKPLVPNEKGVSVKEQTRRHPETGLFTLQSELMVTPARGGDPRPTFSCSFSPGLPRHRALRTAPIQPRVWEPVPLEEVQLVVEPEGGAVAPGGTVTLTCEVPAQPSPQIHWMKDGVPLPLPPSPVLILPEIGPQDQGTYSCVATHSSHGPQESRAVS
VH: EVKLVETGGGLVQPGRPMKLSCVASGFTLSDHWMNWVRQSPEKGLEWVAQIRNRPYKFEKYYSDSVKGRFTISRDDSKNSVYLQMNNLRAEDMGIYYCSSYRYGLAYWGQGTLVTVST
VL: DNLLTQSPAILSVSPGERVSFSCRASQTIDTRIHWYQQRKNGSPRLLIRYISESLSGIPSRFSGSGSGTEFTLTINSVESEDIADYYCQQTESWPITFGSGTKLEIK

Tests used:
[1] = molecular target: synthetic peptide S155 of the RAGE V-domain (amino acids 39-65) (human); assay: ELISA, BSA-conjugated peptide S155 on the plate, two-fold dilutions of antibody, HRP anti-mouse, OD 450 nm
Sequence of synthetic peptide S155 of the RAGE V-domain (amino acids 39-65) (human) (peptide, as listed by the source): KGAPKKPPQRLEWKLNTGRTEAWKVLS

[2] = molecular target: Human rRAGE, full-length RAGE recombinant protein from Merck (human) (UniProt Q15109); assay: SPR (Biacore T200), antibody amine-coupled to a CM5 chip as ligand, RAGE recombinant protein (Merck) as analyte, multi-cycle kinetics, 1:1 fit
Sequence of Human rRAGE, full-length RAGE recombinant protein from Merck (human) (Q15109 23-404 limits assumed): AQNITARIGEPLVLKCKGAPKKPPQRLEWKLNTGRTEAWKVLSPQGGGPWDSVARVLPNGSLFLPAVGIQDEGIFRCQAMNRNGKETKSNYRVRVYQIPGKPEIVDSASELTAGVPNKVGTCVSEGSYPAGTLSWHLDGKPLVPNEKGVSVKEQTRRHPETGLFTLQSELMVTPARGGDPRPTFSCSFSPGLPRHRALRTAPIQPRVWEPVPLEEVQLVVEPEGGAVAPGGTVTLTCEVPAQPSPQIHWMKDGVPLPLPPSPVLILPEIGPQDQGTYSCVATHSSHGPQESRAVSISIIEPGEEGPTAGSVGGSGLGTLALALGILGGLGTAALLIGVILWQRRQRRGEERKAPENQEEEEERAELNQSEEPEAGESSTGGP

[3] = molecular target: synthetic peptide S155 of the RAGE V-domain (amino acids 39-65) (human); assay: SPR (Biacore T200), antibody amine-coupled to a CM5 chip as ligand, RAGE peptide S155 (BioRad) as analyte, multi-cycle kinetics, 1:1 fit; 'No steady state.'
[4] = molecular target: T1, RAGE recombinant protein (Human rRAGE) (Homo sapiens, UniProt Q15109); assay: Surface plasmon resonance binding kinetics (Biacore T200), recombinant protein analyte; conditions: analyte RAGE recombinant protein, or RAGE synthetic peptide, not separated
T1 construct: Human rRAGE=Full-length RAGE recombinant protein from Merck; purchased Merck
T1 sequence (Q15109 23-404): as the sequence (Q15109 23-404 limits assumed) above
Method: For on-rate and off-rate screening, Biacore™ T200 system (Cytiva, Uppsala, Sweden) was used to perform SPR analysis with 1×HBS-EP+ buffer (0.01M Hepes, 0.15M NaCl, 0.003M ethylenediaminetetraacetic acid, and 0.05% Surfactant P20, pH 7.4) (BR100669) used as sample and running buffer. The analysis temperature at the sensor chip surface and within the compartment was set to 25° C. Firstly, pH scouting with 10 mM sodium acetate buffer 4.0 (BR-1003-49), 10 mM sodium acetate buffer 4.5 (BR-1003-50), 10 mM sodium acetate buffer 5.0 (BR-1003-51) and 10 mM sodium acetate buffer 5.5 (BR-1003-52) was performed to identify the optimal pH required for ligand (α-RAGE antibodies) immobilization. This was followed by diluting the ligand with the appropriate Acetate buffer to at least 10 μg/mL. The ligand immobilization on the surface Series S Sensor Chip CM5 (29-1496-03, Cytiva) was performed using the Amine Coupling Kit (BR100050, Cytiva) containing 1-Etyhyl-3-(3-dimethylaminopropyl)-carbodiimide hydrochloride (EDC), N-Hydroxysuccinimide (NHS) and 1.0M ethanolamine-HcL PH 8.5 in accordance with the manufacturer's instructions. For each experimental run, the ligand was immobilized in flow cells 2 or 4 while flow cells 1 or 3 were left unmodified. Flow cells 2 and 4 were used as active flow cells while flow cells 1 and 3 were used as reference flow cells. Ligand immobilization levels were typically within the range 500-900 RU for the kinetic experiments and injected with a flow rate of 10 μL/min and contact time of 300 s. Analytes (RAGE recombinant protein and synthetic peptides) were injected for 120 s with a flow rate of 30 μL/min and dissociation time of 600 s run in order of increasing concentration over the reference and active flow cells using a multi-cycle kinetic approach with five-seven concentration range. Following each binding cycle, the surface was regenerated with a 30 s injection of 10 mM Glycine-HcL, pH 2.5 regeneration solution (BR-1003-56), removing the bound antibody with a contact time of 30 s, flow rate of 30 μL/min and a stabilization period of Os. […]

[5] = molecular target: T2, RAGE synthetic peptide (S155) (Homo sapiens, UniProt Q15109); assay: ELISA screening of purified anti-RAGE antibody clones; type: binding; conditions: BSA-conjugated peptide S155; serial dilutions of antibody; 6 murine clones compared
T2 construct: purchased Biorad; host or cells: chemical synthesis
Method: A 96-well plate was coated with 5 μg/ml of RAGE synthetic peptides or RAGE recombinant protein diluted in phosphate-buffered saline (pH 7.4) overnight at 4° C. The solution was removed, washed with PBS-Tween (PBST) and the plate was blocked with ELISA ultrablock buffer (Biorad) for 1 h at room temperature. After blocking, the plate was washed with PBST and a range of concentrations of α-RAGE antibodies was applied to the plate for 2 h at room temperature. The plate was washed thoroughly with PBST and incubated with HRP-conjugated anti-mouse antibodies diluted 1:1000 in PBS-Tween. After washes with PBST, TMB Core+ substrate solution (Biorad) was added to each well and incubated at room temperature for 30 minutes. 0.2M H2SO4 was used as a stop solution. Absorbance at 450 nm was measured in a Biorad absorbance microplate reader.

RAGE [6] = assay: Western blot on protein extracts from ovarian cancer cell lines (OCCL); set-up: species or system human; conditions: whole-cell extracts of SKOV3, OVCAR3, A2780 and cisplatin-resistant lines; antibody 1 μg/mL
Method: Confluent cultures of cells were lysed in ice cold RIPA buffer (Sigma-Aldrich), whole-cell protein extracts were quantified with DC protein assay, 30 μg/lane were resolved by SDS-PAGE on TGX precast gels, transferred to mini PDVF membranes, blocked 1 h at RT in 5% Bovine Serum Albumin (BSA) in TBST (Tris Buffered Saline, 0.1% Tween-20) and incubated o/n at 4° C. in the same solution with 1 μg/mL of mA9 (sc-365154, Santa Cruz Biotechnology) antibody, mHA9 antibody or hHA9 antibody, or GAPDH (Santa Cruz Biotechnology) as loading control. Membranes were then washed with TBST and incubated 1 h at RT with 0.1 μg/mL of IgG horseradish peroxidase secondary antibody (GE Healthcare) or […] of Goat F(ab′) 2 Anti-Mouse IgG-F(ab′) 2 horseradish peroxidase secondary antibody (Abcam). Target proteins were visualised after incubation with Clarity Western ECL Substrate and imaged using a ChemiDoc System Bio-Rad Imager. Bands were quantified with ImageLab software. Unless stated all the materials specified above were obtained from Bio-Rad Laboratories.

RAGE [7] = molecular target: RAGE (Homo sapiens, UniProt Q15109); assay: Western blot on protein extracts from human healthy tissues; conditions: brain, breast, kidney, liver, lung, ovary, pancreas, spleen and uterus
Sequence of RAGE (Homo sapiens, UniProt Q15109) (Q15109 23-404): as the sequence (Q15109 23-404 limits assumed) above

SKOV3 cells = assay: Internalisation assay on SKOV3 cells; type: cell-based, human; conditions: 4 h or 24 h at 37° C., compared with other clones and AB11451
Method: To screen internalization capacity and traffic to lysosomes of α-RAGE antibodies, all the primary antibodies used in the screening were conjugated to pHAb Amine Reactive Dye following manufacturer's instructions (Promega, UK, Cat. No. G983). This type of dye emits fluorescence when traffics to acidic environments (late endosome and lysosome). For this purpose, 1.5×10^4 SKOV3 cells/well were seeded in 8-well chamber slides (Ibidi) in 300 μl of stripped medium and cultured for 24 h in a humidified, 5% CO2 in air atmosphere incubator at 37° C. After culture, cells were washed in pre-warmed (37° C.) Dulbecco's phosphate buffered saline (DPBS) and slides placed on ice. Cells were treated with control medium or medium containing one of the α-RAGE antibodies conjugated to pH-dye at 10 μg/ml, and the 8-well chamber slides were incubated on ice for 30 minutes. Slides were then transferred to the incubator at 37° C. for 4 h or 24 h. After internalization time, cells were washed in DPBS, fixed in 4% paraformaldehyde for 20 min and permeabilized with 0.1% Triton X-100 (Sigma) for 10 minutes at 4° C. Cells were washed with PBS extensively between all steps, counterstained before imaging with Hoechst (Life Technologies™) and imaged using a LSM710 confocal fluorescence microscopy system (Zeiss, UK). Unconjugated α-RAGE antibodies were also used in the internalisation assay. In this case were visualized using Alexa-fluorophore secondary antibodies as described in the immunofluorescence method.

| Molecule | EC50 (read off the curve) [1] [ng/mL] | Kd [2] [µM] | koff [2] [s⁻¹] | kon [2] [M⁻¹ s⁻¹] | Kd [3] [nM] | koff [3] [s⁻¹] | kon [3] [M⁻¹ s⁻¹] | affinity interaction by SPR (summary statement) [4] | binding to immobilised RAGE synthetic peptide [5] | RAGE isoform detected by western blot (RAGE [6]) | RAGE expression detected in human healthy tissues (RAGE [7]) | uptake (internalisation), secondary antibody detection (SKOV3 cells) |
| --- | --- | --- | --- | --- | --- | --- | --- | --- | --- | --- | --- | --- |
| B1 | 1000 | 6.94 | 0.00561 | 808 | 200 | 0.00515 | 25000 | – | – | – | – | – |
| B2 | – | – | – | – | – | – | – | weak affinity interaction | highest affinity for the peptide sequence antigen | able to detect expression levels of full-length transmembrane RAGE | absent or very low expression | – |
| B3 | – | – | – | – | – | – | – | – | best binding response to the antigen | – | – | highest uptake levels |
